B1: Stg_CT WT (domain or fragment, mouse, UniProt O88602 203-323, looked up)
chain: DRHKQLRATARATDYLQASAITRIPSYRYRYQRRSRSSSRSTEPSHSRDASPVGVKGFNTLPSTEISMYTLSRDPLKAATTPTATYNSDRDNSFLQVHNCIQKDSKDSLHANTANRRTTPV
B2: Stg_CT Δ4 (domain or fragment, mouse, UniProt O88602 203-319, looked up)
chain: DRHKQLRATARATDYLQASAITRIPSYRYRYQRRSRSSSRSTEPSHSRDASPVGVKGFNTLPSTEISMYTLSRDPLKAATTPTATYNSDRDNSFLQVHNCIQKDSKDSLHANTANRR
B3: PSD-95 PDZ2 (domain or fragment, UniProt P78352-1 155-247, looked up)
chain: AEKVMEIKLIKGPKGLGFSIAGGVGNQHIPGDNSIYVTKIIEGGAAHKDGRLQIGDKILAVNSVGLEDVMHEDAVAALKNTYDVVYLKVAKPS

Assays:
PSD-95 PSG = PSD-95 PSG (UniProt P78352-1 309-724); experiment: ITC
PSD-95 NPDZ12 = PSD-95 NPDZ12 (UniProt P78352-1 1-247); experiment: NMR titration
Stg_CT WT = target: B1; experiment: ITC

B1
Kd (PSD-95 PSG): ~5.3 µM

B2
binding result (PSD-95 NPDZ12): binds

B3
binding result (Stg_CT WT): binds

From paper PMC6842113 (Neuron, 2019)
